Experiment: soluble fraction after stress (log2 fold change); higher = more stays soluble; pooled small domains, quantitative proteomics
Details: stress: 75 degC
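Also: 20 min heating vs room temperature control held 20 min.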

Sequence: HMSNWYGTVVKIQPRPNAQAADTAVVKLLDGSEHRFPVWADHLTTIEVGSRLKKLSGGWDPVLMDPEETF
- soluble fraction (log2): -0.669

Sequence: HMSNWYKNNETDQIWWKDTPDSVGEWLFSFDKKQVFNMFADYPHNLTPEQKKIFDEENPEWSDRP
- soluble fraction (log2): -0.351

Sequence: HMSNYPYLLRTYEGKLAVFTDDLVQPDLVFDVYVRTLPELDQQQLSRGIRVKTYDELTSMIEDYI
- soluble fraction (log2): -2.22

Sequence: HMSPAVEDYLEQIHNLIAQKGYARVVDIAGNLKISQASVTNMIQRMDADGLVVYERYRGVVLTETGRK
- soluble fraction (log2): -1.28

Sequence: HMSPDLNEVEEKVFRALNGVESMHVNKLGIELNLPVSELFFTLLELEMKNVVKALPGGMYKL
- soluble fraction (log2): -2.26

Sequence: HMSPFYILDEVEAALDDTNLGRLLEIYEELRENSQLLVITHQKRTMEVGDALYGVTMRGDGVSAVISQRLR
- soluble fraction (log2): 0.306

Sequence: HMSPKYLELVRWINTQIQEKKLTAGQKMYSENELKEMFGVSRQTVRHAISVLEGEGMIRRVRGSGTYINDN
- soluble fraction (log2): -2.42

Sequence: HMSPLALLTPRELDILRAMTAGASNKEIARQFAIAETTVKIHVQHILRKLDVTTRVHAAVMASESGL
- soluble fraction (log2): -3.05

Sequence: HMSPPALAVQRDGSNVQISWPGAEEGWRLESSAEPSGAAWDLIAQNPTPVGGRWTVSLTEPTGRRFYRLVK
- soluble fraction (log2): -0.0804

Sequence: HMSPSLVEAMRLRMYEMGLNQAKLSELLGVSPSRVSDYLTGRSEPTLKVARDISRKLNIDASIVLG
- soluble fraction (log2): -1.68

Sequence: HMSPSQFRSKSLLVEINFASRQMDGEILQGDYAGKRLSELTEAEVQELTAWLKQSDRESFVLLQAYLLRSG
- soluble fraction (log2): -2.46

Sequence: HMSPSSPNQILGQYPKTKNDIILSSGRYGPYLKYNKKNYSLGNNISVEKLSLEEAVKIIDLKDKK
- soluble fraction (log2): -0.291

Sequence: HMSPTDKATVNVYALNVRTGPGTNYKVLGSVIKGTELQVLGSSGKWLKVKYGNREAYVAGWLVK
- soluble fraction (log2): -2.85

Sequence: HMSPTEQEKIGLFIKKLREEKNLTQEAFASLLKTSQSAVARIESGNQNITIEQLMKIGEVLNHNIVSI
- soluble fraction (log2): -0.212

Sequence: HMSQDPLETYYPQWSAAVKQSNPDAEIIRDTDGKYYVEGMTKNRVAVIYENPHLVRLVNATTNVHVE
- soluble fraction (log2): 0.0377

Sequence: HMSQDTLIGRVGVIVIGQARTGSPAQVRVKDGFGQTHYVMAEPDSEGVLKQGEAVLLVSLEGNTFKAILNP
- soluble fraction (log2): -2.41

Sequence: HMSQDVLLKRSGDQIEVKITEVGEDYLKYKKKGFENGPDFKINTSDVFMVTFANGEKMMFEES
- soluble fraction (log2): -0.033

Sequence: HMSQEAKLAMPVTDLRLSARTLNALELANIRTVRDLVSHTEEQLLELRNFGETALAEVKEKLAALGLRLGM
- soluble fraction (log2): 0.0588

Sequence: HMSQESIMPNLVGSTEDEAKAIAVEYGFQLNVISRVNNSQYPAGVIIDQNVDEGVRIKAGYPVGVTIS
- soluble fraction (log2): -0.237

Sequence: HMSQIAENNQKYVGTIQKVLVEGTSKNNDDMLTGRTDSNKVVIFEGDKKLIGNMVELKIVSEHMWYLKGEL
- soluble fraction (log2): -0.0812

Sequence: HMSQISKLWRPSEDVTEILTRSGMDSEFLEGLIPEFIIYWSERADVLVSYNSKFIEHARLKWAQHSAEIKT
- soluble fraction (log2): -4.48

Sequence: HMSQLLHELLAHVLKDRIISGEWPAGSRIMSEHALQERYGVSRGTVRRALAQLVQEGLLVQRKGKGTFVTR
- soluble fraction (log2): -2.59

Sequence: HMSQLVTGVLRNLNDISEKIAAGKAVPEMLGRLENMQQMIANLKGNEGLIKSISILTRSAQDALR
- soluble fraction (log2): -0.484

Sequence: HMSQPLYWQIRRMVIDHDDANDVLQNTFIKAWSNIGSFRGDAKFSTWLYKIAVNESITFINKKKVQN
- soluble fraction (log2): -0.44

Sequence: HMSQPYFELAAADMEALRNALSTIREIESVVLSGKIFHVEVREDLDPGTMNKLAFERGITLTHLVKKKN
- soluble fraction (log2): -2.89

Sequence: HMSQRINLNSASIEDMQSLDISNEKIDSIIDYRNRYGNIHNIYELLKIPGITIGDIHSIRNAVTVEIPH
- soluble fraction (log2): -0.104

Sequence: HMSQSLSGWAAKDLEVKSGADASYRTVGRLPKGSKVSGKIINGYLHIEFDGSMRYVPVSGISKTE
- soluble fraction (log2): -0.6

Sequence: HMSQSYHLADRGQSLGTLDYQAVLVGLATGRLSPDTLSWQEGEAGWVALRQRPEFASGVSAVASL
- soluble fraction (log2): 0.404

Sequence: HMSRAHTELEEKLLTMLEENDMTLPMRVISNIASRIEGIIIPEEKILEVLKKSYDRYREHQMD
- soluble fraction (log2): -0.267

Sequence: HMSRARSRQTSMLEAVAGLGPARRRALLKQFGGLQGVLRAGIEDLSRAPGIGPALAQAIFEHLHPGA
- soluble fraction (log2): -0.482
